# Laboratory results from doi:10.1101/529222 (bioRxiv, 2019).
# B1: endogenous TRIM9 (natural protein, mouse (endogenous in E15.5 cortex), UniProt Q8C7M3 1-817, looked up)
# chain: MEEMEEELKCPVCGSFYREPIILPCSHNLCQACARNILVQTPESESPQSRRASGSGVSDYDYLDLDKMSLYSEADSGYGSYGGFASAPTTPCQKSPNGVRVFPPAMPPPPTHLSPALAPVPRNSCITCPQCHRSLILDDRGLRGFPKNRVLEGVIDRYQQSKAAALKCQLCEKAPKEATVMCEQCDVFYCDPCRLRCHPPRGPLAKHRLVPPAQGRVSRRLSPRKVSTCTDHELENHSMYCVQCKMPVCYQCLEEGKHSSHEVKALGAMWKLHKSQLSQALNGLSDRAKEAKEFLVQLRTMVQQIQENSVEFEACLVAQCDALIDALNRRKAQLLARVNKEHEHKLKVVRDQISHCTVKLRQTTGLMEYCLEVIKENDPSGFLQISDALIRRVHLTEDQWGKGTLTPRMTTDFDLSLDNSPLLQSIHQLDFVQVKASSPVPATPILQLEECCTHNNSATLSWKQPPLSTVAADGYILELDDGSGGQFREVYVGKETMCTVDGLHFNSTYNARVKAFNKTGVSPYSKTLVLQTSEAAGAHETKPMKDTDSEEQTLPFPVPSERLPLRRMSPFSSTLNLQPSFPGRSYFDFRSSPHQLSLHSSLQSLNAPGCNFETQSASYSQLVDIKKLLAVAWFAFDPGSAHSDIIFSNDNLTVTCSSYDDRVVLGKTGFSKGVHYWELTIDRYDNHPDPAFGVARIDVMKDMMLGKDDKAWAMYVDNNRSWFMHNNSHTNRTEGGITKGATIGVLLDLNRKTLTFFVNNEQQGPIAFENVEGLFFPAVSLNRNVQVSLWAPGLRACSGCYFKVCPGAVKSPQAPAP
# Target: GST-EVH1 domain of VASP (UniProt P70460 1-113)
# Test: pull-down
# Chain of GST-EVH1 domain of VASP (P70460 1-113): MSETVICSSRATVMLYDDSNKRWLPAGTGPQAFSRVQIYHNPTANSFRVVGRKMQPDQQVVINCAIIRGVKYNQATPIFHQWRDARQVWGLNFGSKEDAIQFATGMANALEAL
binder,measurement,value
B1,"fold change of TRIM9 precipitated, Trim67-/- lysate against wild-type lysate",~2 fold
